Test system: Escherichia coli TOP10
Assay: shrunken log2 fold change of peptide-encoding DNA abundance (4.5 h post-induction vs induction); higher = less antimicrobial activity (less host growth inhibition)
Conditions: time post-induction: 4.5 h; library: site-saturation at positions 5, 18, 19, 20
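Further: peptides expressed intracellularly from a pBAD plasmid library in pooled LB shake-flask culture, induced with 0.3% L-arabinose, DNA abundance read by NGS, three biological replicates, DESeq2 with apeglm shrinkage.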

Row | Sequence | shrunken log2 fold change
1 | RRIRDRPPRLPRPRPRPPTAPRP | 0.0444
2 | RRIRARPPRLPRPRPRPLSVPRP | -0.0782
3 | RRIRTRPPRLPRPRPRPHMFPRP | -0.0142
4 | RRIRNRPPRLPRPRPRPHKCPRP | -0.0755
5 | RRIRRRPPRLPRPRPRPFQRPRP | 0.608
6 | RRIRVRPPRLPRPRPRPPRWPRP | 0.812
7 | RRIRERPPRLPRPRPRPSKPPRP | 0.0303
8 | RRIRPRPPRLPRPRPRPNMCPRP | -0.0958
9 | RRIRMRPPRLPRPRPRPKYPPRP | -0.00805
10 | RRIRWRPPRLPRPRPRPVNNPRP | 0.018
11 | RRIRKRPPRLPRPRPRPYYCPRP | 0.32
12 | RRIRGRPPRLPRPRPRPYHWPRP | -0.407
13 | RRIRNRPPRLPRPRPRPNGTPRP | -0.167
14 | RRIRFRPPRLPRPRPRPYTAPRP | -1.07
15 | RRIRTRPPRLPRPRPRPPETPRP | 0.161
16 | RRIRHRPPRLPRPRPRPTWCPRP | 0.582
17 | RRIRNRPPRLPRPRPRPFWDPRP | -0.0775
18 | RRIRQRPPRLPRPRPRPSSLPRP | -0.728
19 | RRIRERPPRLPRPRPRPAHIPRP | -0.0903
20 | RRIRVRPPRLPRPRPRPAECPRP | -0.0646
21 | RRIRTRPPRLPRPRPRPGAFPRP | 2.41
22 | RRIRYRPPRLPRPRPRPWCWPRP | -0.153

Row | Sequence | shrunken log2 fold change
23 | RRIRCRPPRLPRPRPRPSSRPRP | -0.459
24 | RRIRRRPPRLPRPRPRPLTLPRP | -0.142
25 | RRIRWRPPRLPRPRPRPCDGPRP | 0.0333
26 | RRIRFRPPRLPRPRPRPFMQPRP | -0.675
27 | RRIRFRPPRLPRPRPRPTIIPRP | -0.66
28 | RRIRYRPPRLPRPRPRPGDMPRP | -0.464
29 | RRIRMRPPRLPRPRPRPQHIPRP | -0.103
30 | RRIRRRPPRLPRPRPRPITIPRP | 0.035
31 | RRIRERPPRLPRPRPRPPWAPRP | 0.176
32 | RRIRCRPPRLPRPRPRPNSGPRP | -0.224
33 | RRIRSRPPRLPRPRPRPIRSPRP | 0.0127
34 | RRIRDRPPRLPRPRPRPAICPRP | 0.391
35 | RRIRVRPPRLPRPRPRPKMNPRP | -0.262
36 | RRIRMRPPRLPRPRPRPGTQPRP | 0.407
37 | RRIRSRPPRLPRPRPRPEFVPRP | 0.00503
38 | RRIRRRPPRLPRPRPRPFVTPRP | -0.0614
39 | RRIRYRPPRLPRPRPRPISVPRP | -0.534
40 | RRIRGRPPRLPRPRPRPMVWPRP | 0.156
41 | RRIRTRPPRLPRPRPRPKLSPRP | 0.197
42 | RRIRHRPPRLPRPRPRPKGKPRP | -0.0894
43 | RRIRQRPPRLPRPRPRPCIYPRP | -0.204
44 | RRIRTRPPRLPRPRPRPVSWPRP | 0.522

Row | Sequence | shrunken log2 fold change
45 | RRIRGRPPRLPRPRPRPETYPRP | 0.569
46 | RRIRDRPPRLPRPRPRPVLLPRP | -0.00551
47 | RRIRHRPPRLPRPRPRPPVPPRP | 0.441
48 | RRIRQRPPRLPRPRPRPTNLPRP | -0.0248
49 | RRIRHRPPRLPRPRPRPSWCPRP | -0.453
50 | RRIRNRPPRLPRPRPRPENRPRP | -0.0205
51 | RRIRHRPPRLPRPRPRPCAIPRP | -0.303
52 | RRIRKRPPRLPRPRPRPCKSPRP | -0.0499
53 | RRIRNRPPRLPRPRPRPNALPRP | -0.134
54 | RRIRQRPPRLPRPRPRPIIKPRP | -0.111
55 | RRIRSRPPRLPRPRPRPTKMPRP | 0.00603
56 | RRIRTRPPRLPRPRPRPCSMPRP | -0.179
57 | RRIRYRPPRLPRPRPRPAHNPRP | -0.409
58 | RRIRIRPPRLPRPRPRPDWAPRP | -0.0489
59 | RRIRQRPPRLPRPRPRPDILPRP | -0.0607
60 | RRIRRRPPRLPRPRPRPSSCPRP | 0.055
61 | RRIRPRPPRLPRPRPRPMIAPRP | -0.0488
62 | RRIRERPPRLPRPRPRPGMFPRP | -0.837
63 | RRIRQRPPRLPRPRPRPSICPRP | -0.443
64 | RRIRNRPPRLPRPRPRPLMNPRP | -0.853
65 | RRIRKRPPRLPRPRPRPCMIPRP | 0.0302
66 | RRIRARPPRLPRPRPRPARAPRP | 0.834

Row | Sequence | shrunken log2 fold change
67 | RRIRSRPPRLPRPRPRPMCHPRP | -0.576
68 | RRIRWRPPRLPRPRPRPFLHPRP | -0.772
69 | RRIRNRPPRLPRPRPRPFAWPRP | 0.0341
70 | RRIRPRPPRLPRPRPRPAQHPRP | 0.223
71 | RRIRTRPPRLPRPRPRPAQFPRP | -0.0946
72 | RRIRVRPPRLPRPRPRPSRKPRP | 0.00977
73 | RRIRYRPPRLPRPRPRPLLEPRP | -0.17
74 | RRIRVRPPRLPRPRPRPLGMPRP | -0.481
75 | RRIRLRPPRLPRPRPRPQSFPRP | -0.0139
76 | RRIRWRPPRLPRPRPRPNEQPRP | -0.00804
77 | RRIRLRPPRLPRPRPRPKNDPRP | -0.563
78 | RRIRNRPPRLPRPRPRPMTEPRP | 0.00748
79 | RRIRSRPPRLPRPRPRPHSIPRP | -0.248
80 | RRIRNRPPRLPRPRPRPSFIPRP | -0.934
81 | RRIRPRPPRLPRPRPRPIACPRP | 0.0852
82 | RRIRCRPPRLPRPRPRPGVCPRP | 0.117
83 | RRIRNRPPRLPRPRPRPLELPRP | -0.0825
84 | RRIRGRPPRLPRPRPRPSQMPRP | 0.0878
85 | RRIRYRPPRLPRPRPRPNTKPRP | -0.0891
86 | RRIRKRPPRLPRPRPRPGRCPRP | 0.586
87 | RRIRDRPPRLPRPRPRPFMYPRP | -0.212
88 | RRIRQRPPRLPRPRPRPMESPRP | -0.0548

Row | Sequence | shrunken log2 fold change
89 | RRIRPRPPRLPRPRPRPACGPRP | 0.839
90 | RRIRARPPRLPRPRPRPHHCPRP | -0.859
91 | RRIRTRPPRLPRPRPRPDRYPRP | 0.04
92 | RRIRNRPPRLPRPRPRPMHYPRP | -0.13
93 | RRIRQRPPRLPRPRPRPSLTPRP | 0.133
94 | RRIRTRPPRLPRPRPRPAAQPRP | 0.312
95 | RRIRHRPPRLPRPRPRPPIEPRP | -0.809
96 | RRIRSRPPRLPRPRPRPSWEPRP | 0.0729
97 | RRIRTRPPRLPRPRPRPYLQPRP | -0.525
98 | RRIRQRPPRLPRPRPRPGHTPRP | 0.0169
99 | RRIRQRPPRLPRPRPRPMRAPRP | 0.235
100 | RRIRERPPRLPRPRPRPFAYPRP | 0.155
101 | RRIRTRPPRLPRPRPRPTVKPRP | 3.07
102 | RRIRTRPPRLPRPRPRPNVHPRP | -0.637
103 | RRIRKRPPRLPRPRPRPVYDPRP | 0.0473
104 | RRIRHRPPRLPRPRPRPMHTPRP | 0.0398
105 | RRIRARPPRLPRPRPRPPYAPRP | 0.251
106 | RRIRWRPPRLPRPRPRPTSQPRP | 0.229
107 | RRIRGRPPRLPRPRPRPNKRPRP | 0.26
108 | RRIRKRPPRLPRPRPRPCHEPRP | 0.00408
109 | RRIRHRPPRLPRPRPRPGMGPRP | 0.0516
